Experiment [1] concerns the target T1, cynomolgus monkey CD8 alpha on primary cynomolgus CD8+ T cells (cynomolgus monkey, UniProt P01732 23-235 (human entry)).
T1 construct: also called Cyno CD8alpha; cyno CD8A
As to the kind of experiment: flow cytometry, cyno CD8+ T cells. On the procedure: (§1) Binding of the 190 ELISA hits to human and cynomologous monkey primary CD8 T cells was assessed by flow cytometry. The FN3 domain molecules were diluted to 2 μM and 0.2 μM in PBS and incubated with human or cynomologous monkey CD8+ T cells in 96-well format. After 1 hour at 4 C, the cells were washed once with PBS and then resuspended with an anti-FN3 domain antibody (PAB25) solution. Following this incubation, the cells were washed twice with PBS and a PE conjugated secondary antibody and a viability dye were added. Finally, cells were washed and resuspended in PBS for flow cytometric analysis using a BD Canto Instrument. Cells were gating on live cells and median fluorescence intensity of the bound Centyrins (PE channel) was calculated using Cytobank software.
(In general: A flow cytometer gives signals particle by particle.)

The target in experiment [2] is T2, human CD8 alpha (CD8A) on primary human CD8+ T cells (human, UniProt P01732 22-235).
T2 construct: whole, on cells; also called hCD8A
T2 sequence (P01732 22-235): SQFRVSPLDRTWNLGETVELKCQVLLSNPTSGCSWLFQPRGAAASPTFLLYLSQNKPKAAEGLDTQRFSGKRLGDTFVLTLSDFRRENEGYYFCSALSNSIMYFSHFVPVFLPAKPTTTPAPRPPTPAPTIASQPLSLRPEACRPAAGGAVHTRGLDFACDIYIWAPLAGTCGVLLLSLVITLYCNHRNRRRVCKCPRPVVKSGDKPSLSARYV
Nature of the experiment: flow cytometry, human CD8+ T cells. On the procedure: as §1

For a further experiment, the target named is T3, human CD8A-Fc (in house) (human, UniProt P01732 22-182, limits assumed).
T3 construct: captured by goat anti-human Fc on the ProteOn chip; also called hCD8A-Fc; recombinant human CD8 alpha; not shown: linker/tag and Fc of human IgG1
T3 sequence (P01732 22-182 limits assumed): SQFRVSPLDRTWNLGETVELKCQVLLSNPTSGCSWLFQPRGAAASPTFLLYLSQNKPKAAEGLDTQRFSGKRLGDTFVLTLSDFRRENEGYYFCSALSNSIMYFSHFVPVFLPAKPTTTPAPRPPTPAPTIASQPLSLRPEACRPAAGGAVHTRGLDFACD
Nature of the experiment: SPR (ProteOn), captured hCD8A-Fc.

T1 sequence (P01732 other isoform, or with tags, fused parts or gaps limits assumed): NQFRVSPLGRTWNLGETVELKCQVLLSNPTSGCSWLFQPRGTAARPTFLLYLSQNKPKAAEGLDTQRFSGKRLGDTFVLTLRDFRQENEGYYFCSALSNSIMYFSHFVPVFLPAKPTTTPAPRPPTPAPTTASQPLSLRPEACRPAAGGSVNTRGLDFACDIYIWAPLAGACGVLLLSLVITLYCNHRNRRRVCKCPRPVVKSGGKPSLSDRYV

B1: P283DR9P1364_E5 (designed binder)
chain: LPAPKNLVVSRVTEDSARLSWTAPDAAFDSFWISYPEWPVPGEAIVLTVPGSERSYDLTGLKPGTEYWVIIQGVKGGKLSWPLSAIFTT
notes: FN3 domain
A word on the koff: it is the rate constant with which the complex falls apart. For the molecule B1, in experiment [1], the “Cyno T-cell Binding 0.2 uM (MFI)” value turned out to be 5090 MFI and the “Cyno T-cell Binding 2 uM (MFI)” value was determined as 55700 MFI. Further, in experiment [2], the “Human T-cell Binding 0.2 uM (MFI)” value came out at 1270 MFI and the “Human T-cell Binding 2 uM (MFI)” value is 17600 MFI. The molecule further yielded a koff with human CD8A-Fc (in house) of 0.000825 s⁻¹.

B2: P283FR9P1366_A9 (designed binder)
chain: LPAPKNLVVSRVTEDSARLSWTAPDAAFDSFNIAYGEYPGPGEAIVLTVPGSERSYDLTGLKPGTEYWVPIWGVKGGELSEPLSAIFTT
notes: FN3 domain
Take B2: in experiment [1], the “Cyno T-cell Binding 0.2 uM (MFI)” value is 580 MFI and the “Cyno T-cell Binding 2 uM (MFI)” value was determined as 8810 MFI. For the same molecule, in experiment [2], the “Human T-cell Binding 0.2 uM (MFI)” value turned out to be 252 MFI and the “Human T-cell Binding 2 uM (MFI)” value stood at 1720 MFI. Besides, the koff in the experiment with human CD8A-Fc (in house) amounted to 0.00394 s⁻¹.

B3: P283DR9P1364_G9 (designed binder)
chain: LPAPKNLVVSRVTEDSARLSWTAPDAAFDSFGIWYPEWPVGGEAIVLTVPGSERSYDLTGLKPGTEYWVNISGVKGGEYSFPLSAIFTT
notes: FN3 domain
B3: in experiment [1], the “Cyno T-cell Binding 0.2 uM (MFI)” value was 2800 MFI and the “Cyno T-cell Binding 2 uM (MFI)” value worked out at 47100 MFI. In experiment [2], the “Human T-cell Binding 0.2 uM (MFI)” value was determined as 401 MFI and the “Human T-cell Binding 2 uM (MFI)” value was 9890 MFI. This molecule also yielded a koff in the experiment with human CD8A-Fc (in house) of 0.00779 s⁻¹.

B4: P283DR9P1364_F2 (designed binder)
chain: LPAPKNLVVSRVTEDSARLSWTAPDAAFDSFWIAYPEWPVPGEAIVLTVPGSERSYDLTGLKPGTEYFVIIQGVKGGFGSFPLSAIFTT
notes: FN3 domain
As to B4, in experiment [1], the “Cyno T-cell Binding 0.2 uM (MFI)” value turned out to be 16900 MFI and the “Cyno T-cell Binding 2 uM (MFI)” value came to 91500 MFI. In experiment [2], the “Human T-cell Binding 0.2 uM (MFI)” value worked out at 6250 MFI and the “Human T-cell Binding 2 uM (MFI)” value is 39200 MFI. The same molecule came in with a koff in the experiment with human CD8A-Fc (in house) of 0.000161 s⁻¹.

B5: P283DR9P1364_G10 (designed binder)
chain: LPAPKNLVVSRVTEDSARLSWTAPDAAFDSFSIAYPEWPGSGEAIVLTVPGSERSYDLTGLKPGTEYFVVIFGVKGGSQSWPLSAIFTT
notes: FN3 domain
Take B5: in experiment [1], the “Cyno T-cell Binding 0.2 uM (MFI)” value came to 769 MFI and the “Cyno T-cell Binding 2 uM (MFI)” value turned out to be 10900 MFI. In experiment [2], the “Human T-cell Binding 0.2 uM (MFI)” value was 409 MFI and the “Human T-cell Binding 2 uM (MFI)” value was 6290 MFI. For the same molecule, in the experiment with human CD8A-Fc (in house), the koff was 0.00253 s⁻¹.

B6: P283DR9P1364_H1 (designed binder)
chain: LPAPKNLVVSRVTEDSARLSWTAPDAAFDSFQISYPEWPVHGEAIVLTVPGSERSYDLTGLKPGTEYWVIIWGVKGGRQSWPLSAIFTT
notes: FN3 domain
Take B6: in experiment [1], the “Cyno T-cell Binding 0.2 uM (MFI)” value turned out to be 10600 MFI and the “Cyno T-cell Binding 2 uM (MFI)” value stood at 54000 MFI. In experiment [2], the “Human T-cell Binding 0.2 uM (MFI)” value was 3030 MFI and the “Human T-cell Binding 2 uM (MFI)” value was determined as 29200 MFI. In the experiment with human CD8A-Fc (in house), this molecule showed a koff of 0.000613 s⁻¹.

B7: P283DR9P1364_E7 (designed binder)
chain: LPAPKNLVVSRVTEDSARLSWTAPDAAFDSFNIAYPEWPVRGEAIVLTVPGSERSYDLTGLKPGTEYWVIIYGVKGGDRSNPLSAIFTT
notes: FN3 domain
Take B7: in experiment [1], the “Cyno T-cell Binding 0.2 uM (MFI)” value is 2240 MFI and the “Cyno T-cell Binding 2 uM (MFI)” value is 28700 MFI. Also, in experiment [2], the “Human T-cell Binding 0.2 uM (MFI)” value is 442 MFI and the “Human T-cell Binding 2 uM (MFI)” value worked out at 5390 MFI. Moreover, the koff with human CD8A-Fc (in house) turned out to be 0.00243 s⁻¹.

B8: P283FR9P1366_B7 (designed binder)
chain: LPAPKNLVVSRVTEDSARLSWTAPDAAFDSFWITYPEWPVNGEAIVLTVPGSERSYDLTGLKPGTEYWVVIWGVKGGVESPPLSAIFTT
notes: FN3 domain
Consider B8, for which, in experiment [1], the “Cyno T-cell Binding 0.2 uM (MFI)” value is 4670 MFI and the “Cyno T-cell Binding 2 uM (MFI)” value turned out to be 51200 MFI. Moreover, in experiment [2], the “Human T-cell Binding 0.2 uM (MFI)” value came out at 899 MFI and the “Human T-cell Binding 2 uM (MFI)” value was determined as 11400 MFI. The molecule further returned a koff with human CD8A-Fc (in house) of 0.00115 s⁻¹.

B9: P283DR9P1364_H6 (designed binder)
chain: LPAPKNLVVSRVTEDSARLSWTAPDAAFDSFIIAYPETPVRGEAIVLTVPGSERSYDLTGLKPGTEYFVIIIGVKGGQESFPLSAIFTT
notes: FN3 domain
For B9, in experiment [1], the “Cyno T-cell Binding 0.2 uM (MFI)” value came to 418 MFI and the “Cyno T-cell Binding 2 uM (MFI)” value was 6000 MFI. Also, in experiment [2], the “Human T-cell Binding 0.2 uM (MFI)” value was 268 MFI and the “Human T-cell Binding 2 uM (MFI)” value is 2620 MFI. Moreover, in the experiment with human CD8A-Fc (in house), the koff amounted to 0.0023 s⁻¹.

B10: P283FR9P1366_A1 (designed binder)
chain: LPAPKNLVVSRVTEDSARLSWTAPDAAFDSFWITYPEWPVPGEAIVLTVPGSERSYDLTGLKPGTEYAVFIWGVKGGDASEPLSAIFTT
notes: FN3 domain
As for B10, in experiment [1], the “Cyno T-cell Binding 0.2 uM (MFI)” value stood at 1650 MFI and the “Cyno T-cell Binding 2 uM (MFI)” value worked out at 39400 MFI. For the same molecule, in experiment [2], the “Human T-cell Binding 0.2 uM (MFI)” value was 516 MFI and the “Human T-cell Binding 2 uM (MFI)” value worked out at 8780 MFI. In the experiment with human CD8A-Fc (in house), this molecule came in with a koff of 0.00226 s⁻¹.

B11: P283DR9P1364_E9 (designed binder)
chain: LPAPKNLVVSRVTEDSARLSWTAPDAAFDSFDIAYPEWPTKGEAIVLTVPGSERSYDLTGLKPGTEYFVVINGVKGGWRSFPLSAIFTT
notes: FN3 domain
In the case of B11, in experiment [1], the “Cyno T-cell Binding 0.2 uM (MFI)” value worked out at 2100 MFI and the “Cyno T-cell Binding 2 uM (MFI)” value came out at 19700 MFI. Besides, in experiment [2], the “Human T-cell Binding 0.2 uM (MFI)” value came to 548 MFI and the “Human T-cell Binding 2 uM (MFI)” value turned out to be 4300 MFI. For the same molecule, in the experiment with human CD8A-Fc (in house), the koff worked out at 0.0019 s⁻¹.

B12: P283FR9P1366_C4 (designed binder)
chain: LPAPKNLVVSRVTEDSARLSWTAPDAAFDSFNIAYPEWPVRGEAIVLTVPGSERSYDLTGLKPGTEYWVIIIGVKGGEDSWPLSAIFTT
notes: FN3 domain
For B12, in experiment [1], the “Cyno T-cell Binding 0.2 uM (MFI)” value was determined as 10200 MFI and the “Cyno T-cell Binding 2 uM (MFI)” value turned out to be 63400 MFI. In experiment [2], the “Human T-cell Binding 0.2 uM (MFI)” value turned out to be 3750 MFI and the “Human T-cell Binding 2 uM (MFI)” value came to 33800 MFI. In the experiment with human CD8A-Fc (in house), the koff was found to be 0.000536 s⁻¹.

B13: P283FR9P1366_A5 (designed binder)
chain: LPAPKNLVVSRVTEDSARLSWTAPDAAFDSFWIAYPEWPTRGEAIVLTVPGSERSYDLTGLKPGTEYFVVIYGVKGGSPSPPLSAIFTT
notes: FN3 domain
In the case of B13, in experiment [1], the “Cyno T-cell Binding 0.2 uM (MFI)” value turned out to be 10900 MFI and the “Cyno T-cell Binding 2 uM (MFI)” value was 67800 MFI. Moreover, in experiment [2], the “Human T-cell Binding 0.2 uM (MFI)” value was 3600 MFI and the “Human T-cell Binding 2 uM (MFI)” value is 27600 MFI. The koff in the experiment with human CD8A-Fc (in house) came to 0.000585 s⁻¹.

B14: P283DR9P1364_H11 (designed binder)
chain: LPAPKNLVVSRVTEDSARLSWTAPDAAFDSFDIAYPELPLGGEAIVLTVPGSERSYDLTGLKPGTEYFVIIWGVKGGDRSEPLSAIFTT
notes: FN3 domain
B14: in experiment [1], the “Cyno T-cell Binding 0.2 uM (MFI)” value came to 9460 MFI and the “Cyno T-cell Binding 2 uM (MFI)” value is 60600 MFI. Moreover, in experiment [2], the “Human T-cell Binding 0.2 uM (MFI)” value came out at 834 MFI and the “Human T-cell Binding 2 uM (MFI)” value was 11500 MFI. The same molecule yielded a koff with human CD8A-Fc (in house) of 0.000964 s⁻¹.

B15: P283FR9P1366_C3 (designed binder)
chain: LPAPKNLVVSRVTEDSARLSWTAPDAAFDSFKIAYPEWPDGGEAIVLTVPGSERSYDLTGLKPGTEYFVIIYGVKGGILSPPLSAIFTT
notes: FN3 domain
For the molecule B15, in experiment [1], the “Cyno T-cell Binding 0.2 uM (MFI)” value worked out at 1040 MFI and the “Cyno T-cell Binding 2 uM (MFI)” value was 4630 MFI. In addition, in experiment [2], the “Human T-cell Binding 0.2 uM (MFI)” value worked out at 407 MFI and the “Human T-cell Binding 2 uM (MFI)” value amounted to 1820 MFI. This molecule also had a koff with human CD8A-Fc (in house) of 0.00207 s⁻¹.

B16: P283FR9P1366_C2 (designed binder)
chain: LPAPKNLVVSRVTEDSARLSWTAPDAAFDSFKISYPEWPPEGEAIVLTVPGSERSYDLTGLKPGTEYAVFIWCVKGGEHSWPLSAIFTT
notes: FN3 domain
As for B16, in experiment [1], the “Cyno T-cell Binding 0.2 uM (MFI)” value turned out to be 19300 MFI and the “Cyno T-cell Binding 2 uM (MFI)” value came to 89200 MFI. Further, in experiment [2], the “Human T-cell Binding 0.2 uM (MFI)” value turned out to be 4320 MFI and the “Human T-cell Binding 2 uM (MFI)” value was 41000 MFI. The molecule further registered a koff with human CD8A-Fc (in house) of 0.000491 s⁻¹.
